Measured values: patent US20200087373A1 (UNIVERSITY OF COPENHAGEN, published 2020)
Ends that are not written are not given here. * marks the point of attachment. C16 diacid = O=C(O)CCCCCCCCCCCCCCC(=O)*; Stearoyl = CCCCCCCCCCCCCCCCCC(=O)*; Palmitoyl = CCCCCCCCCCCCCCCC(=O)*; Myristoyl = CCCCCCCCCCCCCC(=O)*; Lauroyl = CCCCCCCCCCCC(=O)*

T1: human GIP receptor (human, UniProt P48546 22-466)
T1 construct: whole, on cells; Transiently transfected COS-7 cells expressing the human GIP receptor; also called hGIPR
T1 sequence (looked up): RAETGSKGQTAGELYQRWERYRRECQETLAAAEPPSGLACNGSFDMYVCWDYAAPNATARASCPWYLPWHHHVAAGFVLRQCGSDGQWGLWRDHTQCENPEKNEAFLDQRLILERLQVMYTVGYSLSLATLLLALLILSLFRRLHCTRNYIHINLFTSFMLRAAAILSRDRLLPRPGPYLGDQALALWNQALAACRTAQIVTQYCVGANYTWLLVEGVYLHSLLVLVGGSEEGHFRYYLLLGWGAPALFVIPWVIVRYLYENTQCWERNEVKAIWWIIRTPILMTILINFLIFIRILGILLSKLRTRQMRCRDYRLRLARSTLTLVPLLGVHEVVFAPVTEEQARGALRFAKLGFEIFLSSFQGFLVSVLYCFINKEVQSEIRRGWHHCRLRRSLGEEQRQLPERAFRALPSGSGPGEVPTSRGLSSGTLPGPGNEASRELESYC

B1: AT137 [hGIP(5-30)NH2-C16diacid/5] (peptide)
peptide: {C16 diacid}-TFISDYSIAMDKIHQQDFVNWLLAQK-NH2
SMILES: CC[C@H](C)[C@H](NC(=O)[C@H](CO)NC(=O)[C@H](Cc1ccc(O)cc1)NC(=O)[C@H](CC(=O)O)NC(=O)[C@H](CO)NC(=O)[C@@H](NC(=O)[C@H](Cc1ccccc1)NC(=O)[C@@H](NC(=O)CCCCCCCCCCCCCCC(=O)O)[C@@H](C)O)[C@@H](C)CC)C(=O)N[C@@H](C)C(=O)N[C@@H](CCSC)C(=O)N[C@@H](CC(=O)O)C(=O)N[C@@H](CCCCN)C(=O)N[C@H](C(=O)N[C@@H](Cc1c[nH]cn1)C(=O)N[C@@H](CCC(N)=O)C(=O)N[C@@H](CCC(N)=O)C(=O)N[C@@H](CC(=O)O)C(=O)N[C@@H](Cc1ccccc1)C(=O)N[C@H](C(=O)N[C@@H](CC(N)=O)C(=O)N[C@@H](Cc1c[nH]c2ccccc12)C(=O)N[C@@H](CC(C)C)C(=O)N[C@@H](CC(C)C)C(=O)N[C@@H](C)C(=O)N[C@@H](CCC(N)=O)C(=O)N[C@@H](CCCCN)C(N)=O)C(C)C)[C@@H](C)CC
B2: AT187 [hGIP(5-30)NH2[L27K]-C16diacid/27] (peptide)
peptide: TFISDYSIAMDKIHQQDFVNWLK(C16 diacid)AQK-NH2
modifications: N-terminus assumed
SMILES: CC[C@H](C)[C@H](NC(=O)[C@H](CO)NC(=O)[C@H](Cc1ccc(O)cc1)NC(=O)[C@H](CC(=O)O)NC(=O)[C@H](CO)NC(=O)[C@@H](NC(=O)[C@H](Cc1ccccc1)NC(=O)[C@@H](N)[C@@H](C)O)[C@@H](C)CC)C(=O)N[C@@H](C)C(=O)N[C@@H](CCSC)C(=O)N[C@@H](CC(=O)O)C(=O)N[C@@H](CCCCN)C(=O)N[C@H](C(=O)N[C@@H](Cc1c[nH]cn1)C(=O)N[C@@H](CCC(N)=O)C(=O)N[C@@H](CCC(N)=O)C(=O)N[C@@H](CC(=O)O)C(=O)N[C@@H](Cc1ccccc1)C(=O)N[C@H](C(=O)N[C@@H](CC(N)=O)C(=O)N[C@@H](Cc1c[nH]c2ccccc12)C(=O)N[C@@H](CC(C)C)C(=O)N[C@@H](CCCCNC(=O)CCCCCCCCCCCCCCC(=O)O)C(=O)N[C@@H](C)C(=O)N[C@@H](CCC(N)=O)C(=O)N[C@@H](CCCCN)C(N)=O)C(C)C)[C@@H](C)CC
B3: AT188 [hGIP(5-30)NH2[A28K]-C16diacid/28] (peptide)
peptide: TFISDYSIAMDKIHQQDFVNWLLK(C16 diacid)QK-NH2
modifications: N-terminus assumed
SMILES: CC[C@H](C)[C@H](NC(=O)[C@H](CO)NC(=O)[C@H](Cc1ccc(O)cc1)NC(=O)[C@H](CC(=O)O)NC(=O)[C@H](CO)NC(=O)[C@@H](NC(=O)[C@H](Cc1ccccc1)NC(=O)[C@@H](N)[C@@H](C)O)[C@@H](C)CC)C(=O)N[C@@H](C)C(=O)N[C@@H](CCSC)C(=O)N[C@@H](CC(=O)O)C(=O)N[C@@H](CCCCN)C(=O)N[C@H](C(=O)N[C@@H](Cc1c[nH]cn1)C(=O)N[C@@H](CCC(N)=O)C(=O)N[C@@H](CCC(N)=O)C(=O)N[C@@H](CC(=O)O)C(=O)N[C@@H](Cc1ccccc1)C(=O)N[C@H](C(=O)N[C@@H](CC(N)=O)C(=O)N[C@@H](Cc1c[nH]c2ccccc12)C(=O)N[C@@H](CC(C)C)C(=O)N[C@@H](CC(C)C)C(=O)N[C@@H](CCCCNC(=O)CCCCCCCCCCCCCCC(=O)O)C(=O)N[C@@H](CCC(N)=O)C(=O)N[C@@H](CCCCN)C(N)=O)C(C)C)[C@@H](C)CC
B4: AT189 [hGIP(5-30)NH2[Q29K]-C16diacid/29] (peptide)
peptide: TFISDYSIAMDKIHQQDFVNWLLAK(C16 diacid)K-NH2
modifications: N-terminus assumed
SMILES: CC[C@H](C)[C@H](NC(=O)[C@H](CO)NC(=O)[C@H](Cc1ccc(O)cc1)NC(=O)[C@H](CC(=O)O)NC(=O)[C@H](CO)NC(=O)[C@@H](NC(=O)[C@H](Cc1ccccc1)NC(=O)[C@@H](N)[C@@H](C)O)[C@@H](C)CC)C(=O)N[C@@H](C)C(=O)N[C@@H](CCSC)C(=O)N[C@@H](CC(=O)O)C(=O)N[C@@H](CCCCN)C(=O)N[C@H](C(=O)N[C@@H](Cc1c[nH]cn1)C(=O)N[C@@H](CCC(N)=O)C(=O)N[C@@H](CCC(N)=O)C(=O)N[C@@H](CC(=O)O)C(=O)N[C@@H](Cc1ccccc1)C(=O)N[C@H](C(=O)N[C@@H](CC(N)=O)C(=O)N[C@@H](Cc1c[nH]c2ccccc12)C(=O)N[C@@H](CC(C)C)C(=O)N[C@@H](CC(C)C)C(=O)N[C@@H](C)C(=O)N[C@@H](CCCCNC(=O)CCCCCCCCCCCCCCC(=O)O)C(=O)N[C@@H](CCCCN)C(N)=O)C(C)C)[C@@H](C)CC
B5: AT140 [hGIP(5-30)NH2-C16diacid/16] (peptide)
peptide: TFISDYSIAMDK(C16 diacid)IHQQDFVNWLLAQK-NH2
modifications: N-terminus assumed
SMILES: CC[C@H](C)[C@H](NC(=O)[C@H](CO)NC(=O)[C@H](Cc1ccc(O)cc1)NC(=O)[C@H](CC(=O)O)NC(=O)[C@H](CO)NC(=O)[C@@H](NC(=O)[C@H](Cc1ccccc1)NC(=O)[C@@H](N)[C@@H](C)O)[C@@H](C)CC)C(=O)N[C@@H](C)C(=O)N[C@@H](CCSC)C(=O)N[C@@H](CC(=O)O)C(=O)N[C@@H](CCCCNC(=O)CCCCCCCCCCCCCCC(=O)O)C(=O)N[C@H](C(=O)N[C@@H](Cc1c[nH]cn1)C(=O)N[C@@H](CCC(N)=O)C(=O)N[C@@H](CCC(N)=O)C(=O)N[C@@H](CC(=O)O)C(=O)N[C@@H](Cc1ccccc1)C(=O)N[C@H](C(=O)N[C@@H](CC(N)=O)C(=O)N[C@@H](Cc1c[nH]c2ccccc12)C(=O)N[C@@H](CC(C)C)C(=O)N[C@@H](CC(C)C)C(=O)N[C@@H](C)C(=O)N[C@@H](CCC(N)=O)C(=O)N[C@@H](CCCCN)C(N)=O)C(C)C)[C@@H](C)CC
notes: also called AT140 [hGIP(5-30)-C16-diacid/16]
B6: AT107 [hGIP(3-30)NH2[T5W; D15E; H18A]-C16/16] (peptide)
peptide: EGWFISDYSIAMEK(Palmitoyl)IAQQDFVNWLLAQK-NH2
modifications: N-terminus assumed
SMILES: CCCCCCCCCCCCCCCC(=O)NCCCC[C@H](NC(=O)[C@H](CCC(=O)O)NC(=O)[C@H](CCSC)NC(=O)[C@H](C)NC(=O)[C@@H](NC(=O)[C@H](CO)NC(=O)[C@H](Cc1ccc(O)cc1)NC(=O)[C@H](CC(=O)O)NC(=O)[C@H](CO)NC(=O)[C@@H](NC(=O)[C@H](Cc1ccccc1)NC(=O)[C@H](Cc1c[nH]c2ccccc12)NC(=O)CNC(=O)[C@@H](N)CCC(=O)O)[C@@H](C)CC)[C@@H](C)CC)C(=O)N[C@H](C(=O)N[C@@H](C)C(=O)N[C@@H](CCC(N)=O)C(=O)N[C@@H](CCC(N)=O)C(=O)N[C@@H](CC(=O)O)C(=O)N[C@@H](Cc1ccccc1)C(=O)N[C@H](C(=O)N[C@@H](CC(N)=O)C(=O)N[C@@H](Cc1c[nH]c2ccccc12)C(=O)N[C@@H](CC(C)C)C(=O)N[C@@H](CC(C)C)C(=O)N[C@@H](C)C(=O)N[C@@H](CCC(N)=O)C(=O)N[C@@H](CCCCN)C(N)=O)C(C)C)[C@@H](C)CC

Columns and labels:
human GIP receptor [1] = target: T1, human GIP receptor; test: 125I-hGIP(1-42) competition binding, COS-7 cells expressing human GIPR, with 2% HSA;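 also: nonspecific signal taken as radioligand bound to untransfected cells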
Protocol: (§1) After incubation, the cells were washed twice in ice-cold binding buffer (+/−2% HSA) and lysed using 200 mM NaOH with 1% SDS for 30 min. Nonspecific binding was determined as the binding of radioactive ligand to untransfected cells.

human GIP receptor [2] = target: T1, human GIP receptor; test: ratio of Ki with 2% HSA to Ki without HSA, 125I-hGIP competition binding on hGIPR COS-7 cells;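 also: nonspecific binding was defined as radioligand signal on cells lacking the receptor transfection, with cell lysates measured after washes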
Protocol: as §1

human GIP receptor [3] = target: T1, human GIP receptor; test: cell-based or functional assay
human GIP receptor [4] = target: T1, human GIP receptor; test: 125I-hGIP(1-42) competition binding, COS-7 cells expressing human GIPR, without HSA;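 also: nonspecific binding defined as radioligand bound to cells lacking the transfected receptor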
Protocol: as §1

human GIP receptor [5] = target: T1, human GIP receptor; test: 125I-hGIP(1-42) competition binding, COS-7 cells expressing human GIPR
Protocol: as §1

human GIP receptor [6] = target: T1, human GIP receptor; test: 125I-hGIP competition binding on hGIPR COS-7 cells; fold in affinity, paired, reference taken as GIP(3-30)NH2
Protocol: as §1

human GIP receptor [7] = target: T1, human GIP receptor; test: cell-based or functional assay; remark: listed apart in the source

| Binder | Ki (human GIP receptor [1]) | Fold (Ki + HSA / Ki - HSA) (human GIP receptor [2]) | cAMP accumulation Fold (fold change from GIP(5-30)NH2) (human GIP receptor [3]) | cAMP accumulation IC50 (human GIP receptor [3]) | cAMP accumulation logIC50 (human GIP receptor [3]) | Ki (human GIP receptor [4]) | IC50 (human GIP receptor [5]) | fold (paired) (human GIP receptor [6]) | cAMP - antagonisme IC50 (human GIP receptor [7]) | cAMP - antagonisme fold (paired) (human GIP receptor [7]) |
| --- | --- | --- | --- | --- | --- | --- | --- | --- | --- | --- |
| B1 | 0.117 µM | 2 fold | 3.7 fold | 0.102 µM | -6.99 log(M) | 0.0593 µM | – | – | – | – |
| Palmitoyl-EGTFISDYSIAMDKIHQQDFVNWLLAQK-NH2 [AT104 [hGIP(3-30)NH2-C16/3]] | – | – | – | – | – | – | 0.075 µM | 4.9 fold | – | – |
| Myristoyl-EGTFISDYSIAMDKIHQQDFVNWLLAQK-NH2 [AT110 [hGIP(3-30)NH2-C14/3]] | – | – | – | – | – | – | 0.055 µM | 5.2 fold | – | – |
| EGTFISDYSIAMDK(Palmitoyl)IHQQDFVNWLLAQK-NH2 [AT105 [hGIP(3-30)NH2-C16/16]] | – | – | – | – | – | – | 0.522 µM | 34 fold | 0.0238 µM | 3.4 fold |
| B2 | 3300 µM | 18.2 fold | 67.6 fold | 1.86 µM | -5.73 log(M) | 182 µM | – | – | – | – |
| B3 | 0.462 µM | 3.2 fold | 6.8 fold | 0.186 µM | -6.73 log(M) | 0.144 µM | – | – | – | – |
| B4 | 0.276 µM | 3.2 fold | 3 fold | 0.0832 µM | -7.08 log(M) | 0.0855 µM | – | – | – | – |
| B5 | 3.28 µM | 1.5 fold | 7.4 fold | 0.204 µM | -6.69 log(M) | 2.16 µM | – | – | – | – |
| Stearoyl-EGTFISDYSIAMDKIHQQDFVNWLLAQK-NH2 [AT113 [hGIP(3-30)NH2-C18/3]] | – | – | – | – | – | – | 41.4 µM | 16400 fold | – | – |
| Lauroyl-EGTFISDYSIAMDKIHQQDFVNWLLAQK-NH2 [AT101 [hGIP(3-30)NH2-C12/3]] | – | – | – | – | – | – | 0.0099 µM | 0.7 fold | – | – |
| B6 | – | – | – | – | – | – | 5.22 µM | 186 fold | 0.0769 µM | 3.1 fold |
| EGTFISDYSIAMDK(Lauroyl)IHQQDFVNWLLAQK-NH2 [AT102 [hGIP(3-30)NH2-C12/16]] | – | – | – | – | – | – | 0.0591 µM | 6.1 fold | – | – |
